Test results from paper PMC4439027, “Selection of scFv Antibody Fragments Binding to Human Blood versus Lymphatic Endothelial Surface Antigens by Direct Cell Phage Display” (PLoS ONE, 2015).

Legend:
[1] = target: T1, CD146 / MCAM on BECs and melanoma cells (Homo sapiens, UniProt P43121-1); assay: immunostaining of cells or tissue; immunofluorescence on fixed cells (BECs, LECs, HDMECs, melanoma cells) and human skin cryosections, co-staining with anti-podoplanin or commercial anti-CD146 antibody; conditions: one partner purified
T1 construct: also called native CD146; CD146 expressed by BECs, melanoma cells; source: endogenous, on BECs and melanoma cell lines A375, CRL1676, HTB71 (fixed monolayers)
T1 sequence (P43121 24-646): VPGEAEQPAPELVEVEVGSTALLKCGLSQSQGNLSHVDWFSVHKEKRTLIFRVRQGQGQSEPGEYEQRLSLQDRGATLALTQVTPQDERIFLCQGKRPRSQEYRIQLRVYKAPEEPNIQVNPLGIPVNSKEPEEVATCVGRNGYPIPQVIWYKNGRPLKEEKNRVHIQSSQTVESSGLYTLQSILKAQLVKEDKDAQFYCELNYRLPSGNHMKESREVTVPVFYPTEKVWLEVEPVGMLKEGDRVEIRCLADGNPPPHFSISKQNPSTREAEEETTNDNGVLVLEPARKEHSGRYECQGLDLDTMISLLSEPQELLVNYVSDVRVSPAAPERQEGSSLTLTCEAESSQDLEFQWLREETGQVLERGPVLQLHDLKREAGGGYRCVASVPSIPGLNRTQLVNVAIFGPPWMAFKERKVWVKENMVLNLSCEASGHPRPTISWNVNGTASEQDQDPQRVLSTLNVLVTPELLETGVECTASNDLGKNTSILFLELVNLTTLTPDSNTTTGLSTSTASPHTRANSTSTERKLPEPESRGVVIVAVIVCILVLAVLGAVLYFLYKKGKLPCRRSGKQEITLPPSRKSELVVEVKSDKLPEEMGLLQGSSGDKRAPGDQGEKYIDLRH

[2] = target: T2, Recombinant human CD146 comprising the extracellular Met1-Gly559 portion of the protein precursor, C-terminal … (Homo sapiens, UniProt P43121-1); assay: ELISA; plates coated with recombinant CD146 or BSA at 100, 10 and 1 ng/ml overnight at 4°C, blocked with TBST/ 5% BSA; scFv or scFv-Fc added serially diluted, RT overnight; HRP-conjugated detection antibodies, absorbance at 450 nm; conditions: both partners purified
T2 construct: signal peptide in the construct; human CD146 / MCAM / MUC18, extracellular Met1-Gly559 portion of the protein precursor (NP_006491.2); also called recombinant CD146; extracellular domain of recombinant human CD146; source: bought: Sino Biological Inc., Nr; 10115-H08H
T2 sequence (P43121 24-559): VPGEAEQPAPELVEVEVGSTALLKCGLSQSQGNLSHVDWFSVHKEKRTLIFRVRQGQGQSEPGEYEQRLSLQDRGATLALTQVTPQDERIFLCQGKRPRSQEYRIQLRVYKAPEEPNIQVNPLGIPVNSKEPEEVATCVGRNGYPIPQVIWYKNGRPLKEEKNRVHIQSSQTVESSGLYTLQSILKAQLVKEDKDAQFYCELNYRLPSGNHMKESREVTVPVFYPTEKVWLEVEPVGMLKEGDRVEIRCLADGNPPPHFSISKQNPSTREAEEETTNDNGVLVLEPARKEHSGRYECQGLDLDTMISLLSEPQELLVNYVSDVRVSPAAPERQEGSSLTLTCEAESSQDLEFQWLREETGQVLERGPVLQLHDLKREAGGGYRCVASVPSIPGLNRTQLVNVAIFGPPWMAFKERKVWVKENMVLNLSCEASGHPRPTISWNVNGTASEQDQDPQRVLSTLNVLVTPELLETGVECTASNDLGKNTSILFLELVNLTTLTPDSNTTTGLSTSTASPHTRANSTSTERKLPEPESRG

[3] = target: T1, CD146 / MCAM on BECs and melanoma cells; assay: ELISA; whole cell ELISA on confluent monolayers in 96-well plates fixed with PBS/ 1% PFA; purified scFv or scFv-Fc added; absorbance at 450 nm; conditions: one partner purified
[4] = target: T3, CD146 of BEC lysate treated with PNGase F (N-linked oligosaccharides removed) (Homo sapiens, UniProt P43121-1, oligosaccharides removed from N-linked glycoprotein with PNGase F); assay: co-IP; BEC lysate incubated with scFv or scFv-Fc (or Fc only) at 4°C overnight, captured on Protein A/G resin; Western blot in reducing conditions with commercial anti-CD146 antibody; lysates with or without PNGase F, before or after addition of the scFv; conditions: one partner purified
T3 construct: human CD146 / MCAM (NP_006491), endogenous in primary human blood endothelial cells, after PNGase F; band shifted down to 95 kDa; PNGase F was added before or after the scFv; also called deglycosylated CD146; source: endogenous, BEC lysate, treated with PNGase F (3 hrs at 37°C)
T3 sequence (P43121 24-646): as the sequence (P43121 24-646) above

B1: scFv-Fc B6-11 fusion antibody (Fc fusion, human)
VH: EVQLVESGGGLVQGGSLRLSCAASGFTFSSYAMSWVRQAPGKGLEWVSAISGSGGSTYYADSVKGRFTISRDNSKNTLYLQMNSLRAEDTAVYYCAKSSNVRTFDYWGQGTLVTVSR
VL: SSELTQDPAVSVALGQTVRITCQGDSLRSYYASWYQQKPGQAPVLVIYGKNNRPSGIPDRFSGSSSGNTASLTITGAQAEDEADYYCNSSTPLSAPVVFGGGTKLTVL
notes: Runs as a dimer under non-reducing SDS-PAGE; the Fc is that of the vector pFUSE-mIgG2B-Fc2 (Invivogen); also called scFv-mFc fusion antibody; source: HEK293, transfected (pFUSE-mIgG2B-Fc2), purified from culture supernatants (proteinAG UltraLink Resin); not shown: Fc (murine IgG2B), C-terminal, kept
B1: binds [1]; binds [2].

B2: scFv B6-11 (scFv, V domains shown)
VH: EVQLVESGGGLVQGGSLRLSCAASGFTFSSYAMSWVRQAPGKGLEWVSAISGSGGSTYYADSVKGRFTISRDNSKNTLYLQMNSLRAEDTAVYYCAKSSNVRTFDYWGQGTLVTVSR
VL: SSELTQDPAVSVALGQTVRITCQGDSLRSYYASWYQQKPGQAPVLVIYGKNNRPSGIPDRFSGSSSGNTASLTITGAQAEDEADYYCNSSTPLSAPVVFGGGTKLTVL
notes: VH of scFv B6-11 (ETH-2 library, human germline heavy chain segment with randomised CDR3); linker region; VL of scFv B6-11 (ETH-2 library, human germline light chain segment with randomised CDR3); Selected from the semi-synthetic human ETH-2 phage library on BECs (round 6); His-tag and Flag-tag come from phagemid pDN332; also called scFv B6-11 antibody; anti-CD146 scFv B6-11; source: E. coli TG1, …
B2: binds [3]; binds [2]; binds [4].
